The labels stand for the following.
B1: soluble FLRT3 extracellular domain fused to the constant fraction of human IgG (FLRT3^ECD-Fc) (Fc fusion)
chain: KSCPSVCRCDAGFIYCNDRFLTSIPTGIPEDATTLYLQNNQINNAGIPSDLKNLLKVERIYLYHNSLDEFPTNLPKYVKELHLQENNIRTITYDSLSKIPYLEELHLDDNSVSAVSIEEGAFRDSNYLRLLFLSRNHLSTIPWGLPRTIEELRLDDNRISTISSPSLQGLTSLKRLVLDGNLLNNHGLGDKVFFNLVNLTELSLVRNSLTAAPVNLPGTNLRKLYLQDNHINRVPPNAFSYLRQLYRLDMSNNNLSNLPQGIFDDLDNITQLILRNNPWYCGCKMKWVRDWLQSLPVKVNVRGLMCQAPEKVRGMAIKDLNAELFDCKDSGIVSTIQITTAIPNTVYPAQGQWPAPVTKQPDIKNPKLTKDHQTTGSPSRKTITITVKSVTSDTIHISWKLALPMTALRLSWLKLGHSPAFGSITETIVTGERSEYLVTALEPDSPYKVCMVPMETSNLYLFDETPVCIETETAPLRMYNPTTTLNREQEKEPYKNPNLP
modifications: N-terminal HA/Flag epitopes left out; isoform not printed (Q9HAR2-2 chosen over Q9HAR2-4, both fit the variant numbering); signal peptide removed and autoproteolysis at the GPS expected in the cell
B2: Latrophilin-3 wild type (Lphn3^HA,Flag) (receptor)
chain: MWPSQLLIFMMLLAPIIHAFSRAPIPMAVVRRELSCESYPIELRCPGTDVIMIESANYGRTDDKICDSDPAQMENIRCYLPDAYKIMSQRCNNRTQCAVVAGPDVFPDPCPGTYKYLEVQYECVPYKVEQKVFLCPGLLKGVYQSEHLFESDHQSGAWCKDPLQASDKIYYMPWTPYRTDTLTEYSSKDDFIAGRPTTTYKLPHRVDGTGFVVYDGALFFNKERTRNIVKFDLRTRIKSGEAIIANANYHDTSPYRWGGKSDIDLAVDENGLWVIYATEQNNGKIVISQLNPYTLRIEGTWDTAYDKRSASNAFMICGILYVVKSVYEDDDNEATGNKIDYIYNTDQSKDSLVDVPFPNSYQYIAAVDYNPRDNLLYVWNNYHVVKYSLDFGPLDSRSGQAHHGQVSYISPPIHLDSELERPSVKDISTTGPLGMGSTTTSTTLRTTTLSPGRSTTPSVSGRRNRSTSTPSPAVEVLDDMTTHLPSASSQIPALEESCEAVEAREIMWFKTRQGQIAKQPCPAGTIGVSTYLCLAPDGIWDPQGPDLSNCSSPWVNHITQKLKSGETAANIARELAEQTRNHLNAGDITYSVRAMDQLVGLLDVQLRNLTPGGKDSAARSLNKLQKRERSCRAYVQAMVETVNNLLQPQALNAWRDLTTSDQLRAATMLLHTVEESAFVLADNLLKTDIVRENTDNIKLEVARLSTEGNLEDLKFPENMGHGSTIQLSANTLKQNGRNGEIRVAFVLYNNLGPYLSTENASMKLGTEALSTNHSVIVNSPVITAAINKEFSNKVYLADPVVFTVKHIKQSEENFNPNCSFWSYSKRTMTGYWSTQGCRLLTTNKTHTTCSCNHLTNFAVLMAHVEVKHSDAVHDLLLDVITWVGILLSLVCLLICIFTFCFFRGLQSDRNTIHKNLCISLFVAELLFLIGINRTDQPIACAVFAALLHFFFLAAFTWMFLEGVQLYIMLVEVFESEHSRRKYFYLVGYGMPALIVAVSAAVDYRSYGTDKVCWLRLDTYFIWSFIGPATLIIMLNVIFLGIALYKMFHHTAILKPESGCLDNINYEDNRPFIKSWVIGAIALLCLLGLTWAFGLMYINESTVIMAYLFTIFNSLQGMFIFIFHCVLQKKVRKEYGKCLRTHCCSGKSTESSIGSGKTSGSRTPGRYSTGSQSRIRRMWNDTVRKQSESSFITGDINSSASLNREPYRETSMGVKLNIAYQIGASEQCQGYKCHGYSTTEW

Assay [1] concerns the target B2.
Assay [2] addresses 8xHis-tagged Teneurin-2 extracellular domain (Ten2^ECD-His) (UniProt Q9NT68 401-2774, N-terminal HA/Flag epitopes left out; isoform not printed (Q9HAR2-2 chosen over Q9HAR2-4, both fit the variant numbering); signal peptide removed and autoproteolysis at the GPS expected in the cell).

Among the data in publication PMC9135631 (2022) are Kd values, retold here.

As a reminder, the Kd is the constant that tells how readily two partners part at equilibrium. Low readings indicate higher affinity, high ones lower affinity. On to B1, for which the Kd in assay [1] amounted to 0.988 nM. Regarding B2, the dissociation constant (Kd) in assay [2] was 0.69 nM.
